{"source": "patent US20180163180A1", "about": "“METHOD OF ENHANCING SOMATIC CELL REPROGRAMMING WITH THE ACETYLLYSINE READER BRD3R” (THE UAB RESEARCH FOUNDATION, INC ., priority 2015, published 2018)", "key": {"[1]": {"biological_target": "T1, H3K14Ac (Homo sapiens, UniProt P68431)", "T1 construct": "Histone tails used for peptide pull-down experiments; expressed in transfected cells; host or cells: human BJ fibroblasts transduced with BRD3R lentivirus (lysate)", "assay": "Histone peptide pull-down assay", "type": "binding", "settings": "lysates of human fibroblasts overexpressing the protein", "method": "(§1) • Histone peptide pull-down assay: H3 or H4 histone tails with 8 different acetylation modifications were evaluated for binding with BRD3R and BRD3. One unmodified tail for each histone was used for negative control.\n(§2) Human BJ fibroblasts were transduced with BRD3 or BRD3R viruses. Three days post-transduction, cells were lysed by non-denaturing lysis buffer (20 mM HEPES pH 7.9, 150 mM NaCl, 1 mM MgCl2, 0.5% NP40, 10 mM NaF, 0.2 mM NaVO4, 10 mM β-glycerol phosphate, 5% glycerol, 1 mM DTT, 1 mM PMSF and protease inhibitors). Twenty μg of the cell lysates were incubated with 1 μg biotinylated peptide in 300 μl binding buffer (50 mM Tris pH 7.5, 150 mM NaCl, 0.1% NP-40, 1 mM PMSF and protease inhibitors) at 4° C. for overnight. The next day, 30 μl of Dynabeads M-280 Streptavidin was added into each sample (Invitrogen, 11205D). The mixture of proteins, antibodies and beads were further incubated with gentle rotation at 4° C. for 1 h. The beads were then washed with binding buffer three times. The bound proteins were resuspended in 60 μl of 2× SDS sample buffer. The pull-down proteins were analyzed by western using antibody of BRD3 (Proteintech, 11859-1-AP). Two micrograms of cell lysates were loaded as input control. For semi-quantification, band density was normalized to the corresponding inputs."}, "[2]": {"biological_target": "T2, H4K5Ac (Homo sapiens, UniProt P62805)", "T2 construct": "Histone tails used for peptide pull-down experiments; Peg-biotin (chemical label); expressed in transfected cells; host or cells: human BJ fibroblasts transduced with BRD3R lentivirus (lysate)", "assay": "Histone peptide pull-down assay", "type": "binding", "settings": "lysates of human fibroblasts overexpressing the protein", "method": "as §1, §2"}, "[3]": {"biological_target": "T3, H3K9Ac (Homo sapiens, UniProt P68431)", "T3 construct": "Histone tails used for peptide pull-down experiments; expressed in transfected cells; host or cells: human BJ fibroblasts transduced with BRD3R lentivirus (lysate)", "assay": "Histone peptide pull-down assay", "type": "binding", "settings": "lysates of human fibroblasts overexpressing the protein", "method": "as §1, §2"}, "[4]": {"biological_target": "T4, biacetylated H3 (H3K9/14Ac) (Homo sapiens, UniProt P68431)", "T4 construct": "Histone tails used for peptide pull-down experiments; expressed in transfected cells; host or cells: human BJ fibroblasts transduced with BRD3R lentivirus (lysate)", "assay": "Histone peptide pull-down assay", "type": "binding", "settings": "lysates of human fibroblasts overexpressing the protein", "method": "as §1, §2"}, "[5]": {"biological_target": "T5, tetra-acetylated H4 (H4K5/8/12/16Ac) (Homo sapiens, UniProt P62805)", "T5 construct": "Histone tails used for peptide pull-down experiments; Peg-biotin (chemical label); incubated with lysate of human BJ fibroblasts transduced with BRD3R or BRD3 virus", "assay": "Histone peptide pull-down assay", "type": "binding", "settings": "lysates of human fibroblasts overexpressing BRD3R or BRD3; western with BRD3 antibody", "method": "as §1, §2"}, "[6]": {"system": "Human fibroblasts", "assay": "CyQUANT cell proliferation assay of reprogramming cells", "type": "cell-based", "settings": "before day 9 of reprogramming", "method": "• Cell proliferation assays: Human fibroblasts were transduced with reprogramming viruses. Forty-eight hs post transduction, the reprogramming cells were plated at 4,000 cells/well of a 96-well plate. Five replicates were performed for each condition. On days 0, 1, 3, 5, 7, 9, 11 and 13, the cells were measured using a CyQUANT® NF Cell Proliferation Assay Kit (Life Technologies; c35007) per manufacturer's instruction."}, "[7]": {"system": "reprogramming cells", "assay": "Senescence analysis (SA-β-galactosidase staining) of reprogramming cells", "type": "cell-based, human", "settings": "early stages of reprogramming (day 5)", "excerpt": "• Senescence analysis: Prepare reprogramming cells as stated in the reprogramming section. At day 5 of reprogramming, stain cells for endogenous p-galactosidase using the Cell Senescence Kit (Cell Signaling Technology, #9860s) per manufacturer's instruction. Count the β-galactosidase^+ cells in 10 randomly selected fields in each treated groups. The total cells were counted based on DAPI staining."}, "[8]": {"system": "reprogramming cells", "assay": "Cell cycle analysis by flow cytometry of reprogramming cells", "type": "cell-based, human", "settings": "day 6 of reprogramming, compared to controls", "method": "• Cell Cycle Analysis: Harvest cells by trypsin solution. Fix cell with 70% cold ethanol overnight at 4° C. The next day, wash cells with PBS. Treat cells with 0.2 mg/ml RNase A in PBS containing 0.1% Triton X-100 at 37° C. for 1 h. Add PI at a final concentration of 10 μg/ml. Keep the cells in dark and at 4° C. until analysis. Analyze on BD LSRFortessa. Percentage of cells at each cell cycle phases was determined with Watson (pragmatic) (Watson et al., (1987) Cytometry 8: 1-8) and Dean-Jett-Fox (Fox M. H. (1980) Cytometry 1: 71-77) models on FlowJow."}}, "data": [{"substance": "BRD3R: BRD3 with Reprogramming activity; 556 aa isoform of human BRD3 (AAH32124, SEQ ID NO: 47), encoded by cDNA L61", "values": [{"measurement": "binding to H3K14Ac peptide", "setting": "[1]", "value": "bound"}, {"measurement": "binding to H4K5Ac peptide", "setting": "[2]", "value": "weakly"}, {"measurement": "binding to H3K9Ac peptide", "setting": "[3]", "value": "bound"}, {"measurement": "binding to H3K9/14Ac peptide", "setting": "[4]", "value": "bound very weakly"}, {"measurement": "binding to H4K5/8/12/16Ac peptide", "setting": "[5]", "value": "bound strongly"}, {"measurement": "overall proliferation rate vs control cells", "setting": "[6]", "value": "comparable overall proliferation rates"}, {"measurement": "cell senescence (SA-β-galactosidase staining)", "setting": "[7]", "value": "Reduced cell senescence"}, {"measurement": "number of cells in G1", "setting": "[8]", "value": "statistically reduced"}, {"measurement": "population of cells in G2/M phases", "setting": "[8]", "value": "statistically increased"}]}]}
